From patent US20180038859A1

How the values were obtained:
Assay in all cases: cell-based or functional assay
hCCR2b (human) = hCCR2b (human) (UniProt P41597)
CXCR1 (human) = CXCR1 (human) (UniProt P25024)
hCCR2b (human), P41597 = molecular target: hCCR2b (human), P41597
Sequence of hCCR2b (human), P41597 (P41597 whole entry): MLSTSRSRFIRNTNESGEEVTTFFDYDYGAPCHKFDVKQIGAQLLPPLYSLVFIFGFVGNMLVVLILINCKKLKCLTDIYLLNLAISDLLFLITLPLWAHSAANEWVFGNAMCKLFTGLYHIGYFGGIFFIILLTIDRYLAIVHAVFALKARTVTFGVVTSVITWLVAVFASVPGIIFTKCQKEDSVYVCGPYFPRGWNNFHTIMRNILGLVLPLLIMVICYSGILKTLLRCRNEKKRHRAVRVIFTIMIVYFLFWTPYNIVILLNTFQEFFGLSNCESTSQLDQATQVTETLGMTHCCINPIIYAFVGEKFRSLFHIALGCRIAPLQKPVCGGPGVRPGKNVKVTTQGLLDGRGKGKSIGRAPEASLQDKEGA

Sequence of hCCR2b (human) (P41597 whole entry): as above
Sequence of CXCR1 (human) (P25024 whole entry): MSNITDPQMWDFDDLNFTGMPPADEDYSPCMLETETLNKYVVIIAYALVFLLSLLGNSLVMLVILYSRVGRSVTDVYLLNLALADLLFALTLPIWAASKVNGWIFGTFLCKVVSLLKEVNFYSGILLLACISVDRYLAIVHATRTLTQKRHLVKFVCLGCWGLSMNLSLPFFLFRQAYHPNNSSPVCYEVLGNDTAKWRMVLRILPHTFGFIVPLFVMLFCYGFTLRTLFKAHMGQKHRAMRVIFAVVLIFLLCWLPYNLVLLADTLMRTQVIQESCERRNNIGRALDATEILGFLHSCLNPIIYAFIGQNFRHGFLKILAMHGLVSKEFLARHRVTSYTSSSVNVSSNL

Molecule: recombinant native MCP-1 (from UniProt P13500 24-99) (ligand)
- EC50, agonist activity in an Aequorin assay (hCCR2b (human)): 3.1 nM

Molecule: recombinant native MCP-2 (from UniProt P80075 24-99) (ligand)
- EC50, activity (partial agonist) in an Aequorin assay (hCCR2b (human)): 23.5 nM

Molecule: recombinant native IL-8 (from UniProt P10145 28-99) (ligand)
- EC50, agonist activity in an Aequorin assay (CXCR1 (human)): 5.2 nM

B1: biotinMCP-2 (CCL8), P80075 24-99 (ligand)
chain: QPDSVSIPITCCFNVINRKIPIQRLESYTRITNIQCPKEAVIFKTKRGKEVCADPKERWVRDSMKHLDQIFQNLKP
modifications: here or on the partner: pyroGlu at position 1 (replaces Gln1); Lys75 epsilon-amino PEG-Biotin; C-terminal amide
- EC50, activity (partial agonist) in an Aequorin assay (hCCR2b (human), P41597): 50.9 nM
